Data from patent US20040052794A1 (published 2004).

B1: in vitro translated product of D9 cDNA (partial RB18A, aa 436 to 1566) (other)
chain: SVSFQHPVNDSLVCVVMDVQGLTHVSCKLYKGLSDALICTDDFIAKVVQRCMSIPVTMRAIRRKAETIQADTPALSLIAETVEDMVKKNLPPASSPGYGMTTGNNPMSGTTTSTNTFPGGPIATLFNMSMSIKDRHESVGHGEDFSKVSQNPILTSLLQITGNGGSTIGSSPTPPHHTPPPVSSMAGNTKNHPMLMNLLKDNPAQDFSTLYGSSPLERQNSSSGSPRMEICSGSNKTKKKKSSRLPPEKPKHQTEDDFQRELFSMDVDSQNPIFDVNMTADTLDTPHITPAPSQCSTPPTTYPQPVPHPQPSIQRMVRLSSSDSIGPDVTDILSDIAEEASKLPSTSDDCPAIGTPLRDSSSSGHSQSTLFDSDVFQTNNNENPYTDPADLIADAAGSPSSDSPTNHFFHDGVDFNPDLLNSQSQSGFGEEYFDESSQSGDNDDFKGFASQALNTLGVPMLGGDNGETKFKGNNQADTVDFSIISVAGKALAPADLMEHHSGSQGPLLTTGDLGKEKTQKRVKEGNGTSNSTLSGPGLDSKPGKRSRTPSNDGKSKDKPPKRKKADTEGKSPSHSSSNRPFTPPTSTGGSKSPGSAGRSQTPPGVATPPIPKITIQIPKGTVMVGKPSSHSQYTSSGSVSSSGSKSHHSHSSSSSSSASTSGKMKSSKSEGSSSSKLSSSMYSSQGSSGSSQSKNSSQSGGKPGSSPITKHGLSSGSSSTKMKPQGKPSSLMNPSLSKPNISPSHSRPPGGSDKLASPMKPVPGTPPSSKAKSPISSGSGGSHMSGTSSSSGMKSSSGLGSSGSLSQKTPPSSNSCTASSSSFSSSGSSMSSSQNQHGSSKGKSPSRNKKPSLTAVIDKLKHGVVTSGPGGEDPLDGQMGVSTNSSSHPMSSKHNMSGGEFQGKREKSDKDKSKVSTSGSSVDSSKKTSESKNVGSTGVAKIIISKHDGGSPSIKAKVTLQKPGESSGEGLRPQMASSKNYGSPLISGSTPKHERGSPSHSKSPAYTPQNLDSESESGSSIAEKSYQNSPSSDDGIRPLPEYSTEKHKKHKKEKKKVKDKDRDRDRDKDRDKKKSHSIKPESWSKSPISSDQSLSMTSNTILSADRPSRLSPDFMIGEEDDDLMDVALIGN
modifications: 35S-methionine labelled
notes: also called 35S-RB18A protein; in vitro translated D9 protein
B2: carboxy-terminal domain of RB18A expressed in transfected cells (cDNA nucleotides 3935 to 4933) (other)
chain: LGSSGSLSQKTPPSSNSCTASSSSFSSSGSSMSSSQNQHGSSKGKSPSRNKKPSLTAVIDKLKHGVVTSGPGGEDPLDGQMGVSTNSSSHPMSSKHNMSGGEFQGKREKSDKDKSKVSTSGSSVDSSKKTSESKNVGSTGVAKIIISKHDGGSPSIKAKVTLQKPGESSGEGLRPQMASSKNYGSPLISGSTPKHERGSPSHSKSPAYTPQNLDSESESGSSIAEKSYQNSPSSDDGIRPLPEYSTEKHKKHKKEKKKVKDKDRDRDRDKDRDKKKSHSIKPESWSKSPISSDQSLSMTSNTILSADRPSRLSPDFMIGEEDDDLMDVALIGN

Legend:
[1] = target: T1, GST-RB18A-N1 (aa 436 to 1566) fusion protein (human, UniProt Q15648 451-1581); experiment: GST pull-down, quantification of retained protein
T1 construct: D9 cDNA cloned downstream of the glutathione transferase gene in pGEX4T-3; also called GST-RB18A fusion protein; mutant 1; not shown: GST moiety (glutathione transferase of pGEX4T-3) and the vector linker between GST and RB18A
Excerpt: (§1) GST fusion proteins were produced in E. coli strain BL21 and purified on glutathione Sepharose 4B beads (Pharmacia LKB) as described by the manufacturer. […] After washing, pelleting, and boiling in Laemmli buffer, eluted proteins were resolved on 10% SDS/PAGE and visualized by autoradiography.

[2] = target: T1, GST-RB18A-N1 (aa 436 to 1566) fusion …; experiment: GST pull-down of 35S-translated product on glutathione Sepharose beads
Excerpt: as §1

[3] = target: human wild-type p53 (product of p53-H8 cDNA, plasmid pSP65-p53H8) (human, UniProt P04637 1-393); experiment: cell-based or functional assay
Sequence of human wild-type p53 (product of p53-H8 cDNA, plasmid pSP65-p53H8) (P04637 whole entry): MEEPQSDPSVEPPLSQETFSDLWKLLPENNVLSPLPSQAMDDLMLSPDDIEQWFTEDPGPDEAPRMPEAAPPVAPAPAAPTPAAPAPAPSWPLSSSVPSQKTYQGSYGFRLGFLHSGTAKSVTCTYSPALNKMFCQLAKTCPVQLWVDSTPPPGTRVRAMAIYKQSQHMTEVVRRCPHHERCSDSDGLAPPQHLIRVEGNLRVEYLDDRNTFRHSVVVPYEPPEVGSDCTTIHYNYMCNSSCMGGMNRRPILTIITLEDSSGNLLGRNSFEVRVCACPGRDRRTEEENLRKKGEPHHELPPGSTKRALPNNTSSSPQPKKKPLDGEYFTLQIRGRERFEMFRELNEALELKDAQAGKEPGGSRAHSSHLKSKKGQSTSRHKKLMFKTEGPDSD

Row | Binder | molar ratio retained on GST-RB18A [1] [molar ratio] | % of input bound [2] | activation of the IGF-BP3 promoter (reporter gene in H1299 and K562 cells) [3] [fold] | activation of the MDM2 promoter (reporter gene in H1299 and K562 cells) [3] [fold] | activation of the p21Waf1 promoter (reporter gene in H1299 and K562 cells) [3] [fold]
1 | B1 | 1 | 10 % of input |  |  | 
2 | B2 |  |  | 13 | 5 | 10
